According to publication PMC3892207 (Journal of the American Chemical Society, 2013):
Positions count from the first letter of the chain named. Numbers in names are those of the source. One block for each binder: values may come before it.

Tests used:
Experiment in all cases: SEC
[1] = biological target: T1, S100A9(C3S) with D98A (S100A9 subunit of CP-Ser(D98A)) (human, UniProt P06702 1-114, C3S | D98A)
T1 sequence (looked up): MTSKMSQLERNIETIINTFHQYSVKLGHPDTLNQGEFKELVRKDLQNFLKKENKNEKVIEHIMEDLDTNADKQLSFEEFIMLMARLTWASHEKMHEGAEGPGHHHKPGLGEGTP

[2] = biological target: T2, S100A9(C3S) with H103A (S100A9 subunit of CP-Ser(H103A)) (human, UniProt P06702 1-114, C3S | H103A)
T2 sequence (looked up): T1 sequence (looked up) with A98D, H103A

[3] = biological target: T3, human-mouse S100A9 chimera (S100A9 subunit of CP-Ser-mT) (human | mouse, UniProt P06702 1-90, C3S)
T3 sequence: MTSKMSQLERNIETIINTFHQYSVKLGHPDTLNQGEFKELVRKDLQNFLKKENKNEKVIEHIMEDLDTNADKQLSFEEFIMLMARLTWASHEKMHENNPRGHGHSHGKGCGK

[4] = biological target: T4, S100A9(C3S) with E99A (S100A9 subunit of CP-Ser(E99A)) (human, UniProt P06702 1-114, C3S | E99A)
T4 sequence (looked up): T1 sequence (looked up) with A98D, E99A

[5] = biological target: T5, S100A9(C3S) truncated after residue 101 (S100A9 subunit of CP-Ser-Δ101) (human, UniProt P06702 1-90, C3S)
T5 sequence: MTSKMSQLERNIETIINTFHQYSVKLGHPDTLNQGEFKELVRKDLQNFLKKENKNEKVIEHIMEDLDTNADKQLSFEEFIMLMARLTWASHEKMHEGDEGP

[6] = biological target: T6, S100A9(C3S) with E96A (S100A9 subunit of CP-Ser(E96A)) (human, UniProt P06702 1-114, C3S | E96A)
T6 sequence (looked up): T1 sequence (looked up) with E96A, A98D

[7] = biological target: T7, S100A9(C3S) with E111A (S100A9 subunit of CP-Ser(E111A)) (human, UniProt P06702 1-114, C3S | E111A)
T7 sequence (looked up): T1 sequence (looked up) with A98D, E111A

[8] = biological target: T8, S100A9(C3S) with H105A (S100A9 subunit of CP-Ser(H105A)) (human, UniProt P06702 1-114, C3S | H105A)
T8 sequence (looked up): T1 sequence (looked up) with A98D, H105A

S100A9(C3S) = biological target: T9, S100A9(C3S) (human, UniProt P06702 1-90, C3S)
T9 sequence: T1 sequence (looked up) with A98D

[9] = biological target: T10, S100A9(C3S) with H104A (S100A9 subunit of CP-Ser(H104A)) (human, UniProt P06702 1-114, C3S | H104A)
T10 sequence (looked up): T1 sequence (looked up) with A98D, H104A

[10] = biological target: T11, S100A9(C3S) with K106A (S100A9 subunit of CP-Ser(K106A)) (human, UniProt P06702 1-114, C3S | K106A)
T11 sequence (looked up): T1 sequence (looked up) with A98D, K106A

SEC = biological target: the molecule itself

binding result [1]: binds | binding result [2]: binds | binding result [3]: binds | binding result [4]: binds | binding result [5]: binds | binding result [6]: binds | binding result [7]: binds | binding result [8]: binds | binding result (S100A9(C3S)): binds | binding result [9]: binds | binding result [10]: binds
B1: S100A8(C42S) (natural protein, human)
chain: MLTELEKALNSIIDVYHKYSLIKGNFHAVYRDDLKKLLETESPQYIRKKGADVWFKELDINTDGAVNFQEFLILVIKMGVAAHKKSHEESHKE

B2: CP-Ser-mT (αβ heterodimer) (complex, human | mouse)
chain 1: B1 chain
chain 2: T3 sequence
binding result (SEC): binds

B3: CP-Ser (αβ heterodimer of S100A8(C42S) and S100A9(C3S)) (complex, human)
chain 1: B1 chain
chain 2: T1 sequence (looked up) with A98D
binding result (SEC): binds

B4: CP-Ser-AAE (αβ heterodimer) (complex, human)
chain 1: B1 chain
chain 2: T1 sequence (looked up) with A98D, H103A, H104A, H105E
binding result (SEC): binds

B5: CP-Ser(H103A) (αβ heterodimer) (complex, human)
chain 1: B1 chain
chain 2: T1 sequence (looked up) with A98D, H103A
binding result (SEC): binds

B6: CP-Ser-AAA(L109H)(E111H) (αβ heterodimer) (complex, human)
chain 1: B1 chain
chain 2: T1 sequence (looked up) with A98D, H103A, H104A, H105A, L109H, E111H
binding result (SEC): binds

B7: CP-Ser-AAA(K106H) (αβ heterodimer) (complex, human)
chain 1: B1 chain
chain 2: T1 sequence (looked up) with A98D, H103A, H104A, H105A, K106H
binding result (SEC): binds

B8: CP-Ser(K106A) (αβ heterodimer) (complex, human)
chain 1: B1 chain
chain 2: T1 sequence (looked up) with A98D, K106A
binding result (SEC): binds

B9: CP-Ser-AHA (αβ heterodimer) (complex, human)
chain 1: B1 chain
chain 2: T1 sequence (looked up) with A98D, H103A, H105A
binding result (SEC): binds

B10: CP-Ser(H104A) (αβ heterodimer) (complex, human)
chain 1: B1 chain
chain 2: T1 sequence (looked up) with A98D, H104A
binding result (SEC): binds

B11: CP-Ser-AHA(K106H) (αβ heterodimer) (complex, human)
chain 1: B1 chain
chain 2: T1 sequence (looked up) with A98D, H103A, H105A, K106H
binding result (SEC): binds

B12: CP-Ser(E99A) (αβ heterodimer) (complex, human)
chain 1: B1 chain
chain 2: T1 sequence (looked up) with A98D, E99A
binding result (SEC): binds

B13: CP-Ser(D98A) (αβ heterodimer) (complex, human)
chain 1: B1 chain
chain 2: T1 sequence (looked up)
binding result (SEC): binds

B14: CP-Ser-Δ101 (αβ heterodimer) (complex, human)
chain 1: B1 chain
chain 2: T5 sequence
binding result (SEC): binds

B15: CP-Ser(E111A) (αβ heterodimer) (complex, human)
chain 1: B1 chain
chain 2: T1 sequence (looked up) with A98D, E111A
binding result (SEC): binds

B16: CP-Ser-AAA (αβ heterodimer) (complex, human)
chain 1: B1 chain
chain 2: T1 sequence (looked up) with A98D, H103A, H104A, H105A
binding result (SEC): binds

B17: CP-Ser(H105A) (αβ heterodimer) (complex, human)
chain 1: B1 chain
chain 2: T1 sequence (looked up) with A98D, H105A
binding result (SEC): binds

B18: CP-Ser(E96A) (αβ heterodimer) (complex, human)
chain 1: B1 chain
chain 2: T1 sequence (looked up) with E96A, A98D
binding result (SEC): binds
